# According to the DeepSol protein solubility set:
# Experiment: soluble on expression in E. coli; label from the status in PepcDB or PDB records
row,Sequence,soluble on expression in E. coli
1,MGSDKIHHHHHHMNLKSGYPFWSIRNGLMRPYPRLEQDTHCEVAIIGGGVTAALIAHELLRHGHEVVVIEQREIGWGSTSASTALLQYEIDTPMVDLAAQYGMPAAALAYGACAKAILDLQELCDGLGGCDFTRQDSLYYASRARDLKDLQRELDARKTHALPVEWIAGDALWHDYGVRSEGAILSRLAASVDPYRLCYRLFAECEQYGGRIYDRSPIATLQAHDQHVDLRTQDGVNVRARHVIMAAGYGNQQWLSQRVARNRSSYAFVTDPLHDTDVGALKHTMMWETARPYLYVRTTADGRVVAGGEDDSIDIPARRDARVLSKMDTLLKKIAKVMPDVRLRPVFAWGGTFAETADGLPFFGTHSEHGPRVAFAMAYGGNGITYSAIGAGLLRAQLEGRAYPLSDLFGFSRLG,not soluble
2,MGSDKIHHHHHHMNLSHLKMMITVANLGSLQKTAEQLNRTQSAVSMALKKLEENAGFALFNRDGYRLELTEQGQHFLRQAEEVVRQQQRLQSLATQLKHGAEPLLTLCYDHTCDSKLWVPSIQHIQQQYPTTELHVDGESQMRALKRIDNGSADLALCPWLPLFRQYGDFETLPVAPFELTVVISTALMKEFGRMPQSRQDLLELPMLVPQNLEIGINLDAVLRLPSQQRIRVNEVNTQFELLMAGFGWGIIPKHIALDALEQGKLVEISIPGFVQQVRLEIHLVRSANRTLGPAANAIWESFA,not soluble
3,MGSDKIHHHHHHMNMKVLLVNPVGEWGGAEKIFFLVSQIFQKTGFELYVLLGSRGILYEKLRNLNFNISIMNFPDLSENSIVIAGRRFQLPHHLLKNLRKIKILSKKFWDYLRILKPDIIYLNNLRSLVLYYETVRTYGKPCEAVVIWHEHGYQRSIIRQLILDKIYLKFVDAVICVSKHLANKHLKDVQQKLYVVHNGIPDELNAIEKENVRYEYNNNKVLIIHPAFITYWKGQHLALKAVDLLVKRGVRNFEIWFFGEPRSKQDYKYFKKLKQFVRSKNLEKQVFFKGFSANIIDEMLKADIVISTSVEDDPFPTILLEASMIGKPVVTTDAGGSGEIVKNGETGFVVKKDKRELASALCELIQNKELRDVFSKNARDRFLKEFSILAFEKRFLETLESILRR,not soluble
4,MGSDKIHHHHHHMNMKYQHIIEVDKELCIGCGLCKNDCPVNNIIIENKKSVIKKQDCLMCGHCAAICPTKAITLTGFDEPPIELTNKPKLDSDELLMAIKSRRSIRKFKDKEVSSEIIKQIIEAGRYTPSAKNSQDVSYIVLDNKKSIYENEAVKFFRKIKPIANIAIKYSKEVEIDDNFFFKHAPIAIMIITKDKISGSLAASNMALMAESYGLGVLFSGYFSDVANNSPKLKKLLGLKRSNHVLTTLVIGYPDVKYRRTAQKEVATVRYL,not soluble
5,MGSDKIHHHHHHMNNFNNEIKLILQQYLEKFEAHYERVLQDDQYIEALETLMDDYSEFILNPIYEQQFNAWRDVEEKAQLIKSLQYITAQCVKQVEVIRARRLLDGQASTTGYFDNIEHCIDEEFGQCSIASNDKLLLVGSGAYPMTLIQVAKETGASVIGIDIDPQAVDLGRRIVNVLAPNEDITITDQKVSELKDIKDVTHIIFSSTIPLKYSILEELYDLTNENVVVAMRFGDGIKAIFNYPSQETAEDKWQCVNKHMRPQQIFDIALYKKAAIKVGITDV,not soluble
6,MGSDKIHHHHHHMNNKKIFLFEFTVGTGLVPDELLAEGKLMFDILLNQFLDENYTVKTVLCEKIAKKYPKYNEINNLEIIVSDNYINSFKEGLDDSDFALAIAPEEDLILYNLTELIEESGCLNLGCEKSGVKIAGDKFLTYEAIKNAVNTPKTFPVKKYVVKNRLGCDSTHDTFDENYIVQEFIEGEPYSVIFIAKNKKFYPVCMNKQYIEKRYCGGEINIEHTLKEKAIIECKKTLEKIEGINGYVGVDLMINGEEISILEVNPRITTSICGIKSKPSIGKLLIDNALEKDIKFEVESCLKFKRNDFGFEFL,not soluble
7,MGSDKIHHHHHHMNNLYHLKVRCSSLHKIIGEPKSKADKEAGKLTDTAKSAVREMAKFDLFGYNAFEGNKYTQKGNELEEQAIKLSGVTRGLALKKNTERRENEFITGECDIYVPSRKLIIDTKCSWDIGSHPFFTDEAQEKAKKAGYDIQMQGYMWLWDCDQAQIDFVLFPTPLNLISAYDSDFKLIDLVEQIPQIRRITTVIIQRDNELIDKIKERVSAAQKYYDQLISEMS,not soluble
8,MGSDKIHHHHHHMNNVLILYPKLFNCYSKFSRKVLKITSSLGAATLVYPDDPNGLIEKFCEESSGKMTNKEFPNWTPDDITHAIIFDDGEEFIEETERLKESKKPLRLIGICITRVINIKTETEYQSEKSTPIYEYIGRGSYWGNPYSMFEEGEDREEVIRKYKYDFDFEKFPNKEKSEVYKLAGKRLGCFCKPQACHGDVLADFLNSWDDGK,not soluble
9,MGSDKIHHHHHHMNQIINDNYREFLKKLRERHLKKRKVKDKNKPIAVWMQDDIYRDFSIGKSLTIILRTEGCYYAKEGGCLMCSYLMDSSPEKITAENIINQFNYAIEKYKEKIKDLKDFSVKIFTSGSFLDDREVPKEARNYIFKKLSEFDNLKEVAIESRPEFIDEDKLNEIRKYLDVNVEIGVGIESFNEEIREKAINKGITNEQIIRAIELAKNYNIGIKAYLLIKPLFITEKEAIYDSISSANKCIELGCSRISFCPATVHKGSVMEFFFNKNQYRPPFLWSIIEILKEVKKSNPKALIMCDTSGVGSERGAHNLYNCKCNKLIKERLERFTLTQDINVLNVECECKNIWNAYIEVENKNIVPLGDERKLLL,not soluble
10,MGSDKIHHHHHHMNRMAGCINDHLKRYGGLAAGREDEQKRYFAEKRLYALQIETTDACQQGCIFCYAGSTPREHHGLTSDEIRGLLRDAAALEIRAIDWLGGDPLVRPDWYELMQYARSLGLVNNVWTSGLPLKSKEVAARVHEVSEGGFVSVHVDSITPEVYAKLHRGGNPHFIEAIVEGVDNLLALGKPADMMINCITYTSLQGPEDAIKTMRWWFCEKGLRTCLTMFNPAGMGAEWRSLEPQLDEVQRVYTERDRIDYGGDNISIAAMDTDKYYCGTMATVTFTGDVTPCSVIREGVANIRTTPFRDIVARHLDTLVHAALHDVQNLPNPCNDCVNNAHCWGCRASAYHYSGDADGLDPKCWLIRTALTSDSFSVNNNLQKSTDEEIGLKP,not soluble
11,MGSDKIHHHHHHMNSKLSLSTKLSSSGKTQLAEYFATPPFKVITLPSYDDAWANGLNAMQMSSSPGVLAGDLLEIDISLAKLTALSLNTQAFTRVQAMNEGDSAMQTTHILLAENSRLFYLPHPLVLHRDSVFKQQTQIEMGEQSELIYGEIVAIGRVLNDERFAFRQFSSHLKIYALQNDGKKRPLVSDCIQWLPSKMNLTALSQMENYSHQGSLTYLNLAKNNAEIKQQVQALQQQSTEEKDLLIGISQLNEYGLMVRVLGCRAEANSEII,not soluble
12,MGSDKIHHHHHHMNSLQSTHPPKLNSCDRQVILDYFENAWQLEDMLMKTLVEEDTFYLNPDPLRNPLIFYLGHSAVFYINKLISVGLLEKRINPDYEILFEIGVDPEVPEELNQAIAHLEWPQVAQTWEYRKQAYTVIAEVIKTTPITLPIHPTHPLWALMMGIEHQRIHIETSSMLIRQLPIERVKRPQNWQYAPFNGYTAQNEMIQVIGGVVKLGKAFNDPTYGWDIDYGDRTVEVEPFLASKYLITNADFSYFVKAGGYENQAYWDEESWHWKTENNIQYPKFWIHQNGIYKYRAMFDEIDLPLDWPVEVNHYEAMAYCCWQGKDTRLMSEAEYHLATYGSGLVEDVDNYNVNLKFGSPSPVGMLETAKSYSGLYDLRGNVWEHLSDNLNPLPGYKPHFLYEDNSAIFFDNKHQMMLGGCWITNGTEALKYYRNWFRPNFYQHAGFRIVQDMKH,not soluble
13,MGSDKIHHHHHHMNSLSFDFSDDFRPLAAKMRPRCLADYIGQSHLLGKDKPLRRAIEAGYAHSMILWGPPGTGKTTLAEIIAQHFDAEVERLSAVTSGVKEIREAIEQAKYNRQAGRKTLLFVDEVHRFNKSQQDAFLPYIEDGTVIFIGATTENPSFELNNALLSRARIYLLKPLQADEIEQILQNALQDKQNGLGQEHFILADEVLKLLADYVNGDARYALNCLALMADMAESSPQGKVLNQALLIAVLGERNARFDKGGDHYYDLISALHKSIRGSAVDAALYWYARILTAGGDPLYVARRLLAIASEDIGNADPRAMQIAISAWDCYSRVGAYEGERAIAQAVIYLAVAPKSNAVYQAFNQAKQLAKQAKDYDVPLHLRNAPTALMKSLAYGEEYRYAHNEANAYAAGENYFPEQLQDTQFYFPTERGMEKQIKEKLAWLKMQDHASEQQRYKR,not soluble
14,MGSDKIHHHHHHMNSTITPTLNLKAQHAERRVVVTGASGYVGARLVVELLSTGFNVRATSRSLSSLKRFPWYDQVEAVEADLSISEDVNRLFEDVDTVFYLVHSMSGTQNFEELESKIASKVAQAAHSNGVRQIIYLSGLHPRTELDKLSPHMRSRENVARILGSTAVPAITFRAATLIGSGSASFEMIRHLTERLPIMVAPQWINNKIEPISIRDTLYYLVKAADLPEPINEEFDIGSGHIYTFADLLRIYGKIRGLRRTIVSLPIPLPLDTLSGLWIAAITPAPLSLAQPLAQSMQEDAICSNRSIRDYISDPPSGLADYPTSVRRALQQESMGVLSSWDSSWKNLSSTDHLPSDPEWTGRTVYSDVQEQSFRSEPAKVWRVIEGIGGHHGWYSTPLLWFVRGVIDKAIGGPGLGGRRDPNRLRVGDRVDFWRVEEVTPEKQLTLRAEMRASGQAWLQFTINGNTLRQRAVYFPKGLLGRVYWLALIPFHAVIFPTMLRNIIQAGDN,not soluble
15,MGSDKIHHHHHHMNTDIAKNTNSLNDDKKSNSEQRPYGIVLYGATSFVGQITAHYLAEFLSTSKDASGTTVTWAIAGRDEKKLNELQSKLASKVNIIIANSDDATSLDELTEQTQVIISTVGPYLKYGEPLIKSCVDNGTDYVDLTGEAIFIKDMIDKYQEAAKQSGARIVNSCGFDSIPSDLGVYFTQKQAEAKFDSACDVIHMRVKAAKGGLSGGTIASMATIFEEVGQDKSRRKQVANPYLLNDDKDVPNVRQSNVSKPEYDSEHKRWLAPFVMASINTRIVHRSNQLLGYEYGRDFKYDEAMWMKDGIKGKLTSYALSAGLLGFATAMMITPSRELLSKHVLPKSGSGPSKEEQENGYFDIRLFGKTANKETIATKVTGDKDPGYGSTSRMLSQAALCLAQDISKEAVGGGFWTPASAMGDKLLARLKEHAGLSFDVIDR,not soluble
16,MGSDKIHHHHHHMNTHNILIIGQGDIGLPVTNKLAQNGVNVTGLARRKRQNYALSDHAKFMQADALTLSPEQLQDFTHIAIIVTPDEYSTSGYHNSYLAINQHLALLADKLSNLQRVVFISSTGVYGQDNGEWIDEDTVPMLPEREASQVILQAEQALQQVFHDRAIIIRPSGIYGRARLMRVRKAKEPQKQPIAAGAWTNRIMDSDLVNIIAKVLTIKAPKPIYIATDYLPVTSFALTTWLSEQLDEALPVLDDKNSVMTGKRLHSNIPLSWLMYPDWQIGYQDILRHQD,not soluble
17,MGSDKIHHHHHHMNVLASKDFRTEKRPLPFECIALVLQGGGALGAYQAGVYEALAEADIHPDWVAGVSIGAINSAIIAGNEPTERVPKLRAFWREISANPLLDWAAASPALAPTGTLPRLLFNQFSAACALVAGAPGFFSLRQPVPWLQADGSLEGTSFYETKHLKSTLERLVDFDRINAGRMRFSVGAVNVRSGNFVYFDNDQHTIRPEHVMASGSLPPGFPAVEIDGEFYWDGGLISNTPLQWVVEHGARQDTLAFQVDLWSARGEFPRNLSEVATRQKEIQYASRSRAHTDQFKQYQRARHTLASLLSKLPPELLDSEEATALSSIADHKVYKLVHLTYRSKQHEGHSKDHEFSRLSMEEHWRAGYFDAVRTLRHPEALLRPDNLEGVSTYDLAEDGRE,not soluble
18,MGSDKIHHHHHHMNVLLSRKDTIRFLILSELMVNPECNQRDIAKKLGLTPQAISEHFKEMVSEGFINVVHKGYYEVTRKGEEWMSRNLIDLHLFSEELLKKIYSKTVVAIAKGRIAENDSVRYWFGDGYIFAERSAKGNGVALTSAEDGEDVLIKPTGSFEPPEKGEIIIVKVPGVAEGGSRKVDLDSFRELVKSRPTSIVVAIGIEALVTCRKIRVEPIFFGAKEVCIEAAHHGSGVIVACTESMLNDLLRSLIDEGLEFEIKEFVKAT,not soluble
